Results from PMC4155688, “Mapping the Putative G Protein-coupled Receptor (GPCR) Docking Site on GPCR Kinase 2” (The Journal of Biological Chemistry, 2014).

T1: α2AAR-GFP^2 (UniProt P08913 1-465)
T1 construct: α2A-adrenergic receptor; also called α2A-adrenergic receptor; source: HEK293T, transfected, in living cells; not shown: GFP^2, C-terminal (from the name α2AAR-GFP^2), kept
T1 sequence (looked up): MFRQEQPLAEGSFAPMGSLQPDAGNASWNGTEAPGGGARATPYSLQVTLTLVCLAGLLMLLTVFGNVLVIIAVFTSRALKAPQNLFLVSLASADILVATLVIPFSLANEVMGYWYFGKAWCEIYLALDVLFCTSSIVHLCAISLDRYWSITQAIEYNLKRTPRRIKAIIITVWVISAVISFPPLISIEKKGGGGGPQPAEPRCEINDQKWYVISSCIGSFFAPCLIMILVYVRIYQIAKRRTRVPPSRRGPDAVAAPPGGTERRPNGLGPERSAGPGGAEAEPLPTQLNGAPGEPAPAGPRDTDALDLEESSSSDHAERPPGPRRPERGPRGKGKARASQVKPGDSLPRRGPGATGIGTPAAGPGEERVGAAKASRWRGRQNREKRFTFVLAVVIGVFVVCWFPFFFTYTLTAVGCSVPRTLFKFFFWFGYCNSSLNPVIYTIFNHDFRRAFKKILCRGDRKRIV

B1: RlucII-GRK2 R195A (enzyme, human, UniProt P25098 1-689, looked up)
chain: MADLEAVLADVSYLMAMEKSKATPAARASKKILLPEPSIRSVMQKYLEDRGEVTFEKIFSQKLGYLLFRDFCLNHLEEARPLVEFYEEIKKYEKLETEEERVARSREIFDSYIMKELLACSHPFSKSATEHVQGHLGKKQVPPDLFQPYIEEICQNLRGDVFQKFIESDKFTRFCQWKNVELNIHLTMNDFSVHAIIGRGGFGEVYGCRKADTGKMYAMKCLDKKRIKMKQGETLALNERIMLSLVSTGDCPFIVCMSYAFHTPDKLSFILDLMNGGDLHYHLSQHGVFSEADMRFYAAEIILGLEHMHNRFVVYRDLKPANILLDEHGHVRISDLGLACDFSKKKPHASVGTHGYMAPEVLQKGVAYDSSADWFSLGCMLFKLLRGHSPFRQHKTKDKHEIDRMTLTMAVELPDSFSPELRSLLEGLLQRDVNRRLGCLGRGAQEVKESPFFRSLDWQMVFLQKYPPPLIPPRGEVNAADAFDIGSFDEEDTKGIKLLDSDQELYRNFPLTISERWQQEVAETVFDTINAETDRLEARKKAKNKQLGHEEDYALGKDCIMHGYMSKMGNPFLTQWQRRYFYLFPNRLEWRGEGEAPQSLLTMEEIQSVEETQIKERKCLLLKIRGGKQFILQCDSDPELVQWKKELRDAYREAQQLVQRVPKMKNKPRSPVVELSKVPLVQRGSANGL
notes: GRK2, human; source: HEK293T, transfected, in living cells
B2: RlucII-GRK2 S12A (enzyme, human, UniProt P25098 1-689, looked up)
chain: MADLEAVLADVAYLMAMEKSKATPAARASKKILLPEPSIRSVMQKYLEDRGEVTFEKIFSQKLGYLLFRDFCLNHLEEARPLVEFYEEIKKYEKLETEEERVARSREIFDSYIMKELLACSHPFSKSATEHVQGHLGKKQVPPDLFQPYIEEICQNLRGDVFQKFIESDKFTRFCQWKNVELNIHLTMNDFSVHRIIGRGGFGEVYGCRKADTGKMYAMKCLDKKRIKMKQGETLALNERIMLSLVSTGDCPFIVCMSYAFHTPDKLSFILDLMNGGDLHYHLSQHGVFSEADMRFYAAEIILGLEHMHNRFVVYRDLKPANILLDEHGHVRISDLGLACDFSKKKPHASVGTHGYMAPEVLQKGVAYDSSADWFSLGCMLFKLLRGHSPFRQHKTKDKHEIDRMTLTMAVELPDSFSPELRSLLEGLLQRDVNRRLGCLGRGAQEVKESPFFRSLDWQMVFLQKYPPPLIPPRGEVNAADAFDIGSFDEEDTKGIKLLDSDQELYRNFPLTISERWQQEVAETVFDTINAETDRLEARKKAKNKQLGHEEDYALGKDCIMHGYMSKMGNPFLTQWQRRYFYLFPNRLEWRGEGEAPQSLLTMEEIQSVEETQIKERKCLLLKIRGGKQFILQCDSDPELVQWKKELRDAYREAQQLVQRVPKMKNKPRSPVVELSKVPLVQRGSANGL
notes: as for B1
B3: RlucII-GRK2 Y13A (enzyme, human, UniProt P25098 1-689, looked up)
chain: MADLEAVLADVSALMAMEKSKATPAARASKKILLPEPSIRSVMQKYLEDRGEVTFEKIFSQKLGYLLFRDFCLNHLEEARPLVEFYEEIKKYEKLETEEERVARSREIFDSYIMKELLACSHPFSKSATEHVQGHLGKKQVPPDLFQPYIEEICQNLRGDVFQKFIESDKFTRFCQWKNVELNIHLTMNDFSVHRIIGRGGFGEVYGCRKADTGKMYAMKCLDKKRIKMKQGETLALNERIMLSLVSTGDCPFIVCMSYAFHTPDKLSFILDLMNGGDLHYHLSQHGVFSEADMRFYAAEIILGLEHMHNRFVVYRDLKPANILLDEHGHVRISDLGLACDFSKKKPHASVGTHGYMAPEVLQKGVAYDSSADWFSLGCMLFKLLRGHSPFRQHKTKDKHEIDRMTLTMAVELPDSFSPELRSLLEGLLQRDVNRRLGCLGRGAQEVKESPFFRSLDWQMVFLQKYPPPLIPPRGEVNAADAFDIGSFDEEDTKGIKLLDSDQELYRNFPLTISERWQQEVAETVFDTINAETDRLEARKKAKNKQLGHEEDYALGKDCIMHGYMSKMGNPFLTQWQRRYFYLFPNRLEWRGEGEAPQSLLTMEEIQSVEETQIKERKCLLLKIRGGKQFILQCDSDPELVQWKKELRDAYREAQQLVQRVPKMKNKPRSPVVELSKVPLVQRGSANGL
notes: as for B1

Legend:
[1] = molecular target: T1, α2AAR-GFP^2; assay: FRET or BRET; living HEK293T cells co-transfected with α2AAR-GFP^2 (acceptor) and RlucII-GRK2 (donor); in PBS at room temperature, with or without 100 μM norepinephrine (one-point and titration: 6 min; time course); coelenterazine 400A 5 μM; net or agonist-promoted BRET; settings: partners not purified
[2] = molecular target: T1, α2AAR-GFP^2; assay: FRET or BRET; living HEK293T cells co-transfected with α2AAR-GFP^2 and RlucII-GRK2; dose-response to norepinephrine read 6 min after addition; NOR-promoted BRET fitted to biphasic (two-site) curves with a high-affinity and a low-affinity component; settings: partners not purified

Binder	percent reduction of the agonist-promoted BRET signal relative to WT [1]	percent reduction of the low-affinity BRET component relative to WT [2]	fold potentiation of the total agonist-induced BRET relative to WT [1]	fold stimulation of the low-affinity BRET component relative to WT [2]	percent reduction of the agonist-promoted BRET relative to WT [1]
B1	60%	~60%	–	–	–
B2	–	–	2 fold	2.6 fold	–
B3	–	~70%	–	–	~55%
